Drawing on PMC9956121, this text covers Kd (Log10 KD (µM)) for three molecules.

Numbering of substitutions follows the chain as printed. In names and notes the source's numbering stands.

Experiment [1] concerns the target acetyl-6-formylpterin-loaded MR1 C262S/hβ2m, P61769. Description: SPR. The conditions noted are these: chain shown with the change;; parent: est. 2.0; read off a plot.
Experiment [2] concerns the target peptide-loaded HLA-A*02:01/hβ2m (photolabile peptide KILGFVFJV). Description: SPR. The conditions noted are these: chain shown with the change;; parent: est. 0.98; read off a plot.

B1: human TAPBPR (TAP binding protein, related), luminal domain R105K; K211R; R270Q (protein)
chain: KPHPAEGQWRAVDVVLDCFLAKDGAHRGALASSEDRARASLVLKQVPVLDDGSLEDFTDFQGGTLAQDDPPIIFEASVDLVQIPQAEALLHADSSGKEVTCEISKYFLQMTETTVKTAAWFMANMQVSGGGPSISLVMKTPRVTKNEALWHPTLNLPLSPQGTVRTAVEFQVMTQTQSLSFLLGSSASLDCGFSMAPGLDLISVEWRLQHRGRGQLVYSWTAGQGQAVRKGATLEPAQLGMARDASLTLPGLTIQDEGTYICQITTSLYQAQQIIQLNIQASPKVRLSLANEALLPTLICDIAGYYPLDVVVTWTREELGGSPAQVSGASFSSLRQSVAGTYSISSSLTAEPGSAGATYTCQVTHISLEEPLGASTQVVPPERR
Turning to B1, the Kd (Log10 KD (µM)) in experiment [1] amounted to 1.8.

B2: human TAPBPR (TAP binding protein, related), luminal domain S104F; K211L; R270Q (protein)
chain: B1 chain with S104F, K105R, R211L
Regarding B2, the Kd (Log10 KD (µM)) in experiment [2] turned out to be 0.09.

B3: human TAPBPR (TAP binding protein, related), luminal domain K211R; R270Q (protein)
chain: B1 chain with K105R
On to B3, for which the Kd (Log10 KD (µM)) in experiment [2] stood at 0.1.
